Earlier results in patent publication US20050074809A1, “System and method for systematic prediction of ligand/receptor activity” (priority 2001, published 2005).

Assays:
HLA-DRB1*0101 molecule = HLA-DRB1*0101 molecule (Homo sapiens, UniProt P01903+P01911, A100R/D57E/F55L/F60I/F76Y/I96L/L162R/M171V/P40L/Q125E/R42F/V115G/Y59C); details: result in words; reported binding data
HLA-A*0201 molecule = HLA-A*0201 molecule (Homo sapiens, UniProt P04439, D140Y/D185E/D98H/E176V/E277Q/G131W/G231S/I119V/I121R/I166T/I218V/L300P/L318F/N151K/N90K/P208A/P217A/Q86G/Q94H/R138H/R169H/T345S); details: result in words; Kawakami and Rosenberg 1996

Sequence | binding to HLA-DR1(0101) (HLA-DRB1*0101) (HLA-DRB1*0101 molecule) | binding to HLA-A*0201 (HLA-A*0201 molecule)
FAGKNTDLE | does not bind | 
PKPPKPVSKMRMATPLLMQALPMG [Peptide of class II invariant chain (SwissProt Acc. P04233)] | binds | 
PLWGPRALV [Peptide of the mage-3 antigen (SWISSPROT:MAG3_HUMAN)] |  | binds
